The target in experiment [1] is T1, Human CD93 on cells (human CD93 expressing CHO cells; HUVEC, U937 and KG1a cells) (human, UniProt Q9NPY3 22-652).
T1 construct: whole, on cells; also called hCD93 expressing CHO cells; hCD93 CHO cells
T1 sequence (looked up): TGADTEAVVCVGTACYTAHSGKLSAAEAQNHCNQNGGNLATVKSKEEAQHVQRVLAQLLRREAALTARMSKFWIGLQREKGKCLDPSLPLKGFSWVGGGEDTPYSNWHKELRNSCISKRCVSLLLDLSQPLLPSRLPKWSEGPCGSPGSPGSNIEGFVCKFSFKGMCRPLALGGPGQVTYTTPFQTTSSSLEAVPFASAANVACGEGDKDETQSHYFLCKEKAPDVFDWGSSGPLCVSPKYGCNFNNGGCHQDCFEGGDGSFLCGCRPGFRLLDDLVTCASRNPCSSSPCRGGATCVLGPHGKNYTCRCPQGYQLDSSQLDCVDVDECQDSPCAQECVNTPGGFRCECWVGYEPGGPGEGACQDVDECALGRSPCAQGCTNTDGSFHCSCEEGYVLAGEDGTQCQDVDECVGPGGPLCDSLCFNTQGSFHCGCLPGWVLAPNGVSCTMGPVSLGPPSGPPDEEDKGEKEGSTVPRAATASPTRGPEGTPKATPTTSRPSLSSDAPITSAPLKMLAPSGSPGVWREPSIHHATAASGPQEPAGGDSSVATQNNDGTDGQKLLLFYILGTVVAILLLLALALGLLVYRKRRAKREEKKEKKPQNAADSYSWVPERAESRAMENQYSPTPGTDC
The experiment is described as follows: flow cytometry titration on HUVEC cells -human serum; column head printed kd, unit from the axis log (concentration (M)). The protocol:
(§1) Recombinant parental anti-CD93 antibodies were evaluated for their ability to bind to HUVEC cells in the presence or absence of human serum. […] Antibodies were purified using Protein G Sepharose. The resulting antibodies were tested for its binding capacity to a variety of cells that express CD93. […] Cells were quenched with media then counted. Cells were resuspended in FACS buffer (ice cold PBS with 0.5% BSA) and human serum was added to 20% (10% final volume) and put on ice for approximately 20 minutes. 5×10⁴ cells were seeded per well in 100 μL media and incubated with serial diluted anti-CD93 antibodies in 100 μL on ice for 2 hours. Cells were then washed by spinning cells at 1200 rpm for 5 min. Media was discarded and cells were resuspended in 200 μL ice cold FACS buffer. The wash step was repeated and cells were resuspended in 100 μL of secondary antibody, AlexaFluor647 conjugated anti-human IgG or anti-mouse IgG antibodies (Jackson ImmunoResearch), diluted 1:500 in FACS buffer. Plates were blocked from light and incubated 1 hour at 4° C. Cells were then washed again then were resuspended in 200 μL ice cold FACS buffer. Cells were washed again and resuspended in 200 μL fixing solution (PBS with 1% formaldehyde). Samples were stored at 4° C. covered in foil, then were acquired in NovoCyte Flow Cytometer and analyzed by NovoExpress software.

For experiment [2], the target named is T1, Human CD93 on cells (human CD93 …). The experiment is described as follows: flow cytometry titration on HUVEC cells +human serum; column head printed kd, unit from the axis log (concentration (M)). The procedure: as §1
Experiment [3] has the same target. The experiment is described as follows: flow cytometry titration on U937 cells -human serum; column head printed kd, unit from the axis log (concentration (M)). The procedure:
Cells were quenched with media then counted. Cells were resuspended in FACS buffer (ice cold PBS with 0.5% BSA) and put on ice ˜20 min. 5×10⁴ cells were seeded per well in 100 μL and incubated with serial diluted anti-CD93 antibodies in 100 μL on ice for 2 hours. Samples were then washed by spinning samples at 1200 rpm for 5 minutes. Media was discarded and cells were resuspended in 200 μL ice cold FACS buffer. Cells were washed again and resuspended in 100 μL of secondary Antibody, AlexaFluor647 conjugated anti-human IgG or anti-mouse IgG antibodies (Jackson ImmunoResearch), diluted 1:500 in FACS buffer. Plates were covered with foil to protect from light and were incubated for 1 hour on ice. Samples were then washed again and resuspended in 200 μL ice cold FACS buffer. Cells were washed again and resuspended in 200 μL fixing solution (PBS with 1% formaldehyde). Samples were stored at 4° C. covered in foil, ands were subsequently acquired in NovoCyte Flow Cytometer and analyzed by NovoExpress software.

Experiment [4] shares this target. The experiment is described as follows: flow cytometry titration on human CD93 CHO cells; column head printed kd, unit from the axis log (concentration (M)). The procedure:
Cells were quenched with media then counted. Cells were resuspended in FACS buffer (ice cold PBS with 0.5% BSA) and human serum was added to 20% (10% final volume) and put on ice for approximately 20 minutes. 5×10⁴ cells were seeded per well in 100 μL and incubated with serial diluted anti-CD93 antibodies in 100 μL on ice for 2 hours. Samples were then washed by spinning samples at 1200 rpm for 5 minutes. Media was discarded and cells were resuspended in 200 μL ice cold FACS buffer. Cells were washed again and resuspended in 100 μL of secondary Antibody, AlexaFluor647 conjugated anti-human IgG or anti-mouse IgG antibodies (Jackson ImmunoResearch), diluted 1:500 in FACS buffer. Plates were covered with foil to protect from like and incubated for 1 hour on ice. Cells were washed again resuspended in 200 μL ice cold FACS buffer. Cells were washed again and were resuspended in 200 μL fixing solution (PBS with 1% formaldehyde). Samples were stored at 4° C. covered in foil, then were acquired in NovoCyte Flow Cytometer and analyzed by NovoExpress software.

Experiment [5] shares this target. Description: flow cytometry, CHO cells overexpressing human CD93, antibody 0.01ug, mIgG1 as control, APC-A.
Experiment [6] deals with T2, Human CD93 recombinant protein (Sino Biological Inc, Catalog #12589-H08H) (human, UniProt Q9NPY3 22-580).
T2 construct: Biotinylated (EZ-LINK NHS-PEG4 biotin) in the BLI assays; also called hCD93; His-tagged human CD93
T2 sequence (looked up): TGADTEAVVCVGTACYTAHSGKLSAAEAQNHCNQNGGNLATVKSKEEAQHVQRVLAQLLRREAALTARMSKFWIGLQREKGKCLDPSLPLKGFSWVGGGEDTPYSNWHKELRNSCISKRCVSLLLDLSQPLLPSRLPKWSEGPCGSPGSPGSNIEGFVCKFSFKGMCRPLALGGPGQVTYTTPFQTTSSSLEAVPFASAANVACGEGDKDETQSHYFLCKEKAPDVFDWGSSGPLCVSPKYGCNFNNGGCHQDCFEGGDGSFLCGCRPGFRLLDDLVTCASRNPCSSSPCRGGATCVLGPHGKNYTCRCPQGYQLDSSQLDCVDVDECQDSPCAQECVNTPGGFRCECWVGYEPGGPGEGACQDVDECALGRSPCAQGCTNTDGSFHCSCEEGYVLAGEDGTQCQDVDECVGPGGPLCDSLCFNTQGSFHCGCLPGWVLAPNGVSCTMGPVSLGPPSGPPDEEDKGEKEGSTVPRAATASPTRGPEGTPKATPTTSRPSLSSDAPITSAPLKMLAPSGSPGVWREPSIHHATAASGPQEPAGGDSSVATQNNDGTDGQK
Description: ELISA, His-tagged human CD93 coated, OD450. The protocol:
His-tagged human CD93 was coated onto a 96 well plate at 1 μg/mL in 1×PBS overnight at 4° C. The plate was washed with ELISA wash buffer (Boston BioProduct, Inc.) and the wells were blocked with ELISA blocking buffer for 1 hour at 37° C. […] The plate was washed with ELISA wash Buffer. […] The plate was washed with ELISA wash Buffer. HRP substrate was added for indirect detection of the antibodies binding to CD93.
(An ELISA detects its analyte on a solid surface through an enzyme-linked reagent.)

Experiment [7] addresses T1, Human CD93 on cells (human CD93 …). Description: flow cytometry, CHO-hCD93 cells, APC-A.
The target in experiment [8] is T2, Human CD93 recombinant protein (Sino …). Description: BLI (Octet), human CD93; sheet prints Anti-Penta-HIS(HIS1K) biosensor. On the technique in general: Biolayer interferometry detects binding as a change in optical thickness at a sensor tip.
In experiment [9] the target is T1, Human CD93 on cells (human CD93 …). Description: flow cytometry blocking assay, CHO-hCD93 cells, antibody 50 ug/ml then MMRN2 0.1 ug/ml, APC-A. The procedure:
(§2) After incubation, the cells were washed with FACS buffer and incubated with anti-His conjugated APC or streptavidin conjugated APC at a ratio of 1:500 for 30 minutes at 4° C. After washing with FACS buffer twice, the samples were analyzed and data acquired in NovoCyte Flow.

For experiment [10] the target is unchanged. Description: flow cytometry blocking assay, CHO-hCD93 cells, antibody 50 ug/ml then MMRN2 0.5 ug/ml, APC-A. The protocol: as §2
In general terms: In flow cytometry, cells or beads pass a laser one at a time.

Data on 6 molecules can be found in patent publication US20230365705A1 (DYNAMICURE BIOTECHNOLOGY, published 2023).

B1: Recombinant parental 7F3 with a human CH1 domain and mouse IgG1 CH2 and CH3 Fc domains (antibody, V domains shown)
VH: QVQLQQSGADLVRPGASVKLSCKASGYTFTDYEMHWVKQTPVYGLEWIGGIDPETGDTAYNQNFKGKATLTADKSSSAAYMELRSLTSEDSAVYYCTNYGNLYYYAMDYWGQGTSVTVSS
VL: ENVLTQSPAIMSASPGEKVTMTCRASSSVSSSYLHWYQQKSGASPKLWIYSTSNLAFGVPARFSGSGSGTSYSLTISSVEAEDAATYYCQQYSGYPLTFGSGTKLEIK
Take B1: the Kd in [1] came to 0.741 nM; in experiment [2] it was 3.43 nM; in experiment [3], 0.0234 nM; in experiment [4], 0.0757 nM.

B2: humanized 17B10 H3L2 (antibody, mouse IgG1, V domains shown)
VH: QVQLVQSGPEVKKPGESLKISCKASGYAFSSYWLNWVRQMPGKGLEWMGRIYPGDGDTDYNGKFKGQVTISADKSSGTAYLQLSSLKASDTAVYFCVRGDGYWAMDYWGQGTLVTVSS
VL: DIVMTQTPLSLPVTPGEPASISCRFSQSLLHSNGITYLYWYLQKPGQSPQLLIYTMSNLASGVPDRFSGSGSGTDFTLKISRVEAEDVGVYYCAQNLELPWTFGGGTKLEIK
notes: Chimeric Fc: human CH1, mouse IgG1 CH2 and CH3
In the case of B2, in experiment [5], the “M2 gate, % of cells” value was 96.7%.

B3: Recombinant parental 16E4 with a human CH1 domain and mouse IgG1 CH2 and CH3 Fc domains (antibody, V domains shown)
VH: QVQLQQPGAELVKPGASVKLSCKASGYTFTSYWMHWVKQRPGQGLEWIGEIDPSASYTYYNQKFKGKATLTVDKSSSTAYMQLSSLTSEDSAVYYCARSVYYGNKYFDVWGAGTTVTVSS
VL: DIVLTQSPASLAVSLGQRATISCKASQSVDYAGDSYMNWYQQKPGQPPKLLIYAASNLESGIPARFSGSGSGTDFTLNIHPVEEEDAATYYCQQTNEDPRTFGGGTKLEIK
Regarding B3, the dissociation constant Kd in experiment [1] was determined as 0.174 nM; in experiment [2], 0.314 nM; in [3], 0.0629 nM; in [4], 0.14 nM.

B4: 17B10 (hybridoma) (antibody, V domains shown)
VH: QVQLQQSGPELVKPGASVKISCKASGYAFSSYWLNWVKQRPGKGLEWFGRIYPGDGDTDYNGKFKGKATLTADKSSSTAYMQLRSLTSEDSAVYFCVRGDGYWAMDYWGQGTSVTVSS
VL: DIVMTQAAFSNPVTLGTSASISCRFSKSLLHSNGITYLYWYLQKPGQSPQLLIYQMSNLASGVPDRFSSSGSGTDFTLRISRVEAEDVGVYYCAQNLELPWTFGGGTKLEIK
notes: Mouse hybridoma monoclonal antibody
As for B4, the EC50 in experiment [6] worked out at 0.153 nM.

B5: 17B10-hIgG1 (recombinant parental 17B10-hFc) (antibody, V domains shown)
VH: QVQLQQSGPELVKPGASVKISCKASGYAFSSYWLNWVKQRPGKGLEWFGRIYPGDGDTDYNGKFKGKATLTADKSSSTAYMQLRSLTSEDSAVYFCVRGDGYWAMDYWGQGTSVTVSS
VL: DIVMTQAAFSNPVTLGTSASISCRFSKSLLHSNGITYLYWYLQKPGQSPQLLIYQMSNLASGVPDRFSSSGSGTDFTLRISRVEAEDVGVYYCAQNLELPWTFGGGTKLEIK
notes: also called recombinant parental 17B10 with the human Fc; 17B10 chimeric
Turning to B5, in experiment [6], the EC50 came to 0.0167 nM.

B6: 10B1 (antibody, V domains shown)
VH: QVQLKQSGPGLVQPSQSLSITCTVSDFSLSSFGVNWVRQPPGKGLEWLGVIWSGGSTDYNVAFISRLSISKDNSKSQVFFKMNNLQADDTAIYYCARNWRYDGYFYAMDYWGQGTSVTVSS
VL: DIVMTQSQKFMSTSTGDRVSVTCKASQNVGTNVAWYQQKPGQSPKALIYSASYRFIGVPDRFTGSGSGTDFTLTITNVQSEDLAEYFCQQYNRNPITFGSGTKLEIK
notes: as for B4
For B6, the “M3 gate, % of cells” value in experiment [7] is 97.3%. Further, in [8], the Kd came out at 0.904 nM, the off-rate constant (koff) worked out at 0.000116 s⁻¹ and the kon worked out at 128000 M⁻¹ s⁻¹. Also, the “M3 gate, % of cells positive for MMRN2 after the antibody” value in experiment [9] came to 29.4%. Besides, the “M3 gate, % of cells positive for MMRN2 after the antibody” value in experiment [10] was found to be 47.2%.

By Kd is commonly meant a measure of binding affinity in units of concentration. By EC50 is commonly meant the midpoint of the concentration-response curve. In general, koff refers to the first-order rate constant of dissociation. As a reminder, the kon is a measure of how fast the partners come together.
